Measured values reported in paper PMC7753147 (2020).

T1: gephyrin E domain (gephE), recombinant
T1 chain: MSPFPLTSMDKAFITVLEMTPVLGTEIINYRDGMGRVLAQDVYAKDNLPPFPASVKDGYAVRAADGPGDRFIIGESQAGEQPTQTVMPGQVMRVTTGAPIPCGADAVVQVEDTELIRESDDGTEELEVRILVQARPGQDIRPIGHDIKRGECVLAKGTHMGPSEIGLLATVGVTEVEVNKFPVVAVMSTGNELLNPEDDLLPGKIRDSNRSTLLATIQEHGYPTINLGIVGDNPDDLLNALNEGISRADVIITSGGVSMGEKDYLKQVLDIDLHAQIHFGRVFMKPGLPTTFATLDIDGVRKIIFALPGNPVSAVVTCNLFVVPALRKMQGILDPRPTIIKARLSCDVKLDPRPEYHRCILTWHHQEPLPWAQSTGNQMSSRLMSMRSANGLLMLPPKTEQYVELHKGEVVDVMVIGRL

T2: Gephyrin E domain (gephE) (Rattus norvegicus, UniProt Q03555)
T2 chain: T1 chain


Biological target: T1, gephyrin E domain (gephE), recombinant

With DLRSNDFSIVGSLPR (C-terminal amide) [GlyR β-derived peptide 414DLRSNDFSIVGSLPR428, unmodified, in solution] the Ki was 10 µM.

Biological target: T2, Gephyrin E domain (gephE)

Point of comparison: DLRSNDFSVVGSLPR [GlyRβ_Full_Positional_Scan_166], EC50 255 µM. Against it:
- DLRSNDFTIVGSLPR [GlyRβ_Full_Positional_Scan_156] — within 1.5-fold, 198 µM
- DLRSNDFSCVGSLPR [GlyRβ_Full_Positional_Scan_177] — 2.2-fold lower, 118 µM
- DLRSNDFGIVGSLPR [GlyRβ_Full_Positional_Scan_142] — 2-fold higher, 505 µM
- DLRSNDFSMVGSLPR [GlyRβ_Full_Positional_Scan_178] — within 1.5-fold, 228 µM
- DLRSNDYSIVGSLPR [GlyRβ_Full_Positional_Scan_129] — 8.6-fold higher, 2200 µM
- DLRSNDWSIVGSLPR [GlyRβ_Full_Positional_Scan_128] — within 1.5-fold, 380 µM
- DLRSNDFSIIGSLPR [GlyRβ_Full_Positional_Scan_183] — 2.4-fold lower, 107 µM
- DLRSNDFSLVGSLPR [GlyRβ_Full_Positional_Scan_164] — within 1.5-fold, 268 µM
